Measured values reported in patent US8927207B2, “miRNAs as therapeutic targets in cancer” (Research Foundation of State University of New York, priority 2008, dated 2015).

Experiments:
DHFR mRNA [1] = assay: real time qRT-PCR of DHFR mRNA after transfection; type: cell-based, human; conditions: HCT-116 (wt-p53), 24 h after transfection, GAPDH normalized
Procedure: The analysis was performed as follows. Total RNA, including miRNA, was isolated from cell lines by using TRIzol reagent (Invitrogen) according to the manufacturer's instructions at 24 h after transfection. cDNA was synthesized with the High Capacity cDNA synthesis kit (Applied Biosystems) using 2 μg of total RNA as the template and random primers. Real-time qRT-PCR analysis was done on the experimental mRNAs. The PCR primers and probes for DHFR, and the internal control gene GAPDH were purchased from Applied Biosystems. qRT-PCR was done on an ABI 7500HT instrument under the following conditions: 50° C., 2 min of reverse transcription; 95° C., 10 min; 95° C., 15 sec; 60° C., 1 min. The reaction was done for up to 40 cycles (n=3). GAPDH was used as an internal standard for normalization.

HCT-116 (wt-p53) cells [2] = assay: WST-1 cell proliferation with MTX treatment after transfection; type: cell-based, human; conditions: 72 hours
Procedure: HCT-116 (wt-p53) cells were plated in 96-well plates at 1×10^3 cells/well in triplicate. They were transfected with miR-192 precursor (FIG. 3, lane 4), non-specific control miRNA (FIG. 3, lane 2), or siRNA against DHFR (FIG. 3, lane 3) in 100 μl of medium. […] Ten microliters of WST-1 (Roche Applied Science) was added to each well. After 2 hours of incubation, absorbance was measured at 450 and 630 nm respectively (n=3).

HCT-116 (null-p53) cells = assay: WST-1 cellular proliferation after miR-192 transfection; type: cell-based, human; conditions: n=3
Procedure: (§1) miR-192 inhibits cell proliferation of HCT-116 (wt-p53), RKO (wt-p53) and HT-29 (mut-p53) colon cancer cell lines. To assess the functional significance of miR-192, the impact of miR-192 on cellular proliferation was evaluated using HCT-116 (wt-p53), HCT-116 (null-p53), RKO (wt-p53) and HT-29 (mut-p53) colon cancer cell lines. The human colon cancer cell lines HCT-116 (wt-p53) and HCT-116 (null-p53) were provided by Prof Bert Vogelstein (The Johns Hopkins University) and were maintained in McCoy's 5A medium (Life Technologies). The other two human colon cancer cell lines, RKO (wt-p53) and HT-29 (mut-p53), were obtained from the American Type Culture Collection. The HT-29 (mut-p53) cell line has a missense mutation in codon 273 of p53 resulting in an Argto-His substitution. RKO (wt-p53) and HT-29 (mut-p53) cells were maintained in Eagle's MEM and Iscove's Modified Dulbecco's Medium at the American Type Culture Collection, respectively. All media were supplemented with 10% dialyzed fetal bovine serum (Hyclone Laboratories). All cell lines were grown at 37° C. in a humidified incubator with 5% CO2. The cell lines were transfected as described above (see Examples 1 and 2).
(§2) The cellular proliferation was evaluated as follows. HCT-116 (wt-p53) (FIG. 4A), HCT-116 (null-p53) (FIG. 4C), RKO (wt-p53) (FIG. 4B), and HT-29 cells (FIG. 4D) were plated in 96-well plates in triplicate at 1×10^3 cells per well after transfection with miR-192 precursor (illustrated as—Δ—) or non-specific control miRNA (illustrated as—□—). Cells were cultured for 24, 48, 72, or 96 hours. The absorbance at 450 and 630 nm was measured after incubation with 10 μl of WST-1 for 2 hours. A non-specific miR was used as a negative control.

HCT-116 (wt-p53) cells [3] = assay: as above; type: cell-based, human; conditions: overexpression vs non-specific miR, n=3
Procedure: as §1, §2

HT-29 (mut-p53) cells = assay: as above; type: cell-based, human; conditions: HT-29, n=3
Procedure: as §1, §2

RKO (wt-p53) cells = assay: as above; type: cell-based, human; conditions: n=3
Procedure: as §1, §2

E2F3 = assay: Western immunoblot of E2F3, HCT-116 (wt-p53); type: cell-based, human
Procedure: The expression of miR-192 on the expression of E2F3 and Rb in HCT-116 (wt-p53) cells was also analyzed. In these experiments, HVT-116 (wt-p53) cells, as described above (see Example 3) were transfected with non-specific miR (FIG. 7, lane 2), DHFR siRNA (FIG. 7, lane 3) or miR-192 (FIG. 7, lane 4) according to the procedure described above (see Examples 1 and 2). One HCT-116 (wt-p53) sample was not transfected, and used as a negative control (FIG. 7, lane 1). Western immunoblot analysis was performed according to the procedure described above (see Example 5), except that rabbit anti-E2F-3 polyclonal antibody (1:1000, C-18) (Santa Cruz Biotechnology) was used.

p53 = assay: western immunoblot of p53 in HCT-116 (wt-p53) and U-2 OS cells; type: cell-based; conditions: both HCT-116 (wt-p53) and U-2 OS cells, 48 h after transfection
Excerpt: (§3) miR-215 increases the expression of cell cycle control genes p53 and p21. p53 and p21, a downstream target of the p53 pathway of growth control, are reported to block cells at G2 checkpoint mainly through inhibiting activity of Cdc2, the cyclin-dependent kinase that normally drives cells into mitosis, which is the ultimate target of pathways that mediate rapid arrest in G2 in response to DNA damage. To further analyze the mechanism of cell proliferation inhibition by miR-215, we transfected miR-215 precursor into HCT-116 (wt-p53) and U-2 OS cells, and evaluated the levels of cell cycle control genes p53 and p21 by western immunoblot analysis.

p21 = assay: western immunoblot of p21 in HCT-116 (wt-p53) and U-2 OS cells; type: cell-based; conditions: both HCT-116 (wt-p53) and U-2 OS cells, 48 h after transfection
Excerpt: as §3

DHFR mRNA [4] = assay: real time qRT-PCR of DHFR mRNA; type: cell-based; conditions: U-2 OS cells
Procedure: Expression levels of TS or DHFR mRNA were analyzed using real time qRT-PCR analysis (FIG. 15).

B1: miR-192: microRNA miR-192 (SEQ ID NO:1), transfected into cells as miR-192 precursor (Ambion) (nucleic acid)
chain: GCCGAGACCGAGUGCACAGGGCUCUGACCUAUGAAUUGACAGCCAGUGCUCUCGUCUCCCCUCUGGCUGCCAAUUCCAUAGGUCACAGGUAUGUUCGCCUCAAUGCCAGC
modifications: delivered as precursor, further chemistry not given here
Q: Which “DHFR mRNA expression” value (DHFR mRNA [1]) does the source give for B1 here?
A: no reduction

Q: What about the “effect in combination with MTX” value (HCT-116 (wt-p53) cells [2]; MTX 25 nM) of the same molecule?
A: synergistic effect

Q: And the cell proliferation reduced (HCT-116 (wt-p53) cells [2]; transfected cells in combination with MTX 25 nM)?
A: ~70%

Q: What about the “suppression of cellular proliferation” value (HCT-116 (null-p53) cells) of the same molecule?
A: 15%

Q: What about the “suppression of cellular proliferation” value (HCT-116 (wt-p53) cells [3]) of the same molecule?
A: over 55%

Q: What about the “suppression of cellular proliferation” value (HT-29 (mut-p53) cells) of the same molecule?
A: 24%

Q: What about the “suppression of cellular proliferation” value (RKO (wt-p53) cells) of the same molecule?
A: 48%

Q: And the “expression of E2F3” value (E2F3)?
A: decreased expression

Q: And the p53 protein level (p53)?
A: significant increase

Q: And the p21 protein level (p21)?
A: significant increase

Q: What about the “DHFR mRNA expression” value (DHFR mRNA [4]) of the same molecule?
A: no reduction
